Data taken from US20210284749A1 (ABL BIO, published 2021).

Experiments:
human BCMA-Fc/His (1-51) = molecular target: T1, human BCMA-Fc/His (1-51) (human, UniProt Q02223 1-51); assay: BLI (Octet), antigen on Ni-NTA biosensor, IgG in solution
T1 construct: also called recombinant human BCMA-Fc/His; recombinant human BCMA-His (Sino Biological Inc.); not shown: Fc region; C-terminal His tag
T1 sequence: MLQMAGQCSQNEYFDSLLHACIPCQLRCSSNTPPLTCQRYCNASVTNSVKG
Protocol: A 96-well black microplate was mounted on a Biosensor tray case, 200 μl of 1XKB was added to each of the 8 wells, and then 8 Ni-NTA biosensors (Fortebio) were inserted thereto for hydration for 10 minutes. For antigen fixation, 5 μg/ml of recombinant human BCMA-His (Sino Biological Inc.) was diluted using 1XKB. Experiments were performed with a threshold of 0.5 to 1.0 nm, and Octet Data Acquisition 9.0 software was activated to create an Octet program template. The first step was for Baseline 1, the second step was for loading, and the threshold was fixed to 0.5 to 1.0 nm. In the third step, which was for Baseline 2, association for 5 minutes and dissociation for 20 minutes were performed. A plate temperature was fixed to 30° C., and the prepared buffer solution was placed in order into a new 96-well black microplate according to the Octet program template. 200 μl of 1XKB used as Baseline 1 and recombinant human BCMA-Fc/His which is an antigen to be loaded were diluted to 5 μg/ml, and 200 μl of the dilution was added thereto. After adding 200 μl of 1XKB used as Baseline 2, 200 μl of the antibody to be reacted with the antigen was dispensed, and the instrument was operated. After completion of the experiment, an association constant (kon), a dissociation constant (kdis), and an equilibrium dissociation constant (KD) for each antibody were analyzed and calculated with Octet Analysis 9.0 software.

[1] = molecular target: T2, recombinant human BCMA (ELISA antigen, construct not specified) (human, UniProt Q02223 1-54); assay: ELISA on coated recombinant human BCMA, antibody titrated, HRP anti-Fab detection, absorbance 450 nm
T2 construct: Fc 1-51; Fc/His 1-51; Fc 4-48) was coated in these ELISAs; also called recombinant BCMA; recombinant protein
T2 sequence: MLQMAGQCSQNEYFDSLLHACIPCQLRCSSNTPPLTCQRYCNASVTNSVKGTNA
Protocol: Specific binding abilities of the anti-BCMA IgG antibodies isolated in Example 1.4 to recombinant BCMA protein were analyzed by ELISA.
Using recombinant human BCMA or monkey BCMA as an antigen, and HRP-conjugated Fab polychronal antibody reagent (Pierce, 31414) as a secondary antibody, ELISA was performed as described in Example 1.3.

[2] = molecular target: T3, human BCMA expressed on cell surface (H929, OPM-2, CHOK1-hBCMA cells) (human, UniProt Q02223 1-184); assay: FACS on H929 cells
T3 construct: also called cell-surface BCMA; BCMA on cell surface
T3 sequence: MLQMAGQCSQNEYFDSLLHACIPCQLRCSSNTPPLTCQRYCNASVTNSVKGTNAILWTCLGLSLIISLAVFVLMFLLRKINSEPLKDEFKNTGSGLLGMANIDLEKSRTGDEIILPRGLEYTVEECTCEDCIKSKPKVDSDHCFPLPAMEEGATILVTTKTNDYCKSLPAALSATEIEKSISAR

[3] = molecular target: T2, recombinant human BCMA (ELISA antigen, …); assay: ELISA on recombinant BCMA
[4] = molecular target: T4, human monomeric BCMA antigen (human, UniProt Q02223 5-54, limits assumed); assay: SPR (Biacore T200), antibody captured on protein A chip, antigen 6.25-100 nM
T4 construct: also called recombinant human BCMA antigens
T4 chain: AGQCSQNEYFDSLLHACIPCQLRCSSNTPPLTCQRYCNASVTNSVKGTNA
Protocol: In particular, the prepared antibodies were diluted with a 1×HPS-EP buffer (GE Healthcare, BR-1006-69). The target antigen-binding affinity analysis was performed using a Biacore T200 (GE Healthcare). The antibodies were flowed onto a protein A chip at a contact time of 60 seconds, a stabilization time of 30 seconds, and a flow rate of 30 μl/min until a capture level reached 128 RU (Response Unit), thereby preparing an antibody-captured protein A chip.
The antigen was sequentially diluted with a 1×HPS-EP buffer, by 2-fold each time, from 100 nM to 6.25 nM, thereby preparing a total of […] samples. The 1×HPS-EP buffer was used as a negative control group (blank).
The prepared antigen was flowed across the antibody-captured protein A chip at a flow rate of 30 μl/min for an association time of 60 seconds, followed by a disassociation phase for 180 seconds. Regeneration was performed with a 10-mM Glycine-HCL (pH 1.5) buffer (GE Healthcare, BR-1003-54) at a flow rate of 30 μl/min for a contact time of 30 seconds.

B1: anti-BCMA IgG antibody 2C6 (antibody, V domains shown)
VH: EVQLLESGGGLVQPGGSLRLSCAASGFTFSNYGMSWVRQAPGKGLEWVSSIDYNGSTYYNPSLKSRFTISRDNSKNTLYLQMNSLRAEDTAVYYCAKEHGLFDSWGQGTLVTVSS
VL: EIVLTQSPGTLSLSPGERATLSCRVSQSISSYLNWYQQKPGQAPRLLIYDASTRAIGIPDRFSGSGSGTDFTLTISRLEPEDFAVYYCQQVNSYPITFGQGTKVEIKR
Kd (human BCMA-Fc/His (1-51)): 0.37 nM
koff (human BCMA-Fc/His (1-51)): 0.000403 s⁻¹
kon (human BCMA-Fc/His (1-51)): 1.09e+06 M⁻¹ s⁻¹
EC50 (read off the curve) [1]: ~0.05 µg/mL

B2: mutant antibody 5A6 LM6 (antibody, V domains shown)
VH: EVQLLESGGGLVQPGGSLRLSCAASGFTFSNYGVHWVRQAPGKGLEWVSYISYSGGTYYNPSLKSRFTISRDNSKNTLYLQMNSLRAEDTAVYYCARDSDDFGFDYWGQGTLVTVSS
VL: QSVLTQPPSASGTPGQRVTISCQGESLRSYYVNWYQQLPGTAPKLLIYDHSKRPTGVPDRFSGSKSGTSASLAISGLRSEDEADYYCQSYDASTVVFGGGTKLTVLG
notes: Light chain CDR mutant of 5A6 (IgG1); heavy chain as 5A6
MFI [2]: 78.9
EC50 [3]: 0.0537 nM
Kd [4]: 18.1 nM
koff [4]: 0.00922 s⁻¹
kon [4]: 509000 M⁻¹ s⁻¹

B3: mutant antibody 5A6 LM2 (antibody, V domains shown)
VH: EVQLLESGGGLVQPGGSLRLSCAASGFTFSNYGVHWVRQAPGKGLEWVSYISYSGGTYYNPSLKSRFTISRDNSKNTLYLQMNSLRAEDTAVYYCARDSDDFGFDYWGQGTLVTVSS
VL: QSVLTQPPSASGTPGQRVTISCQGDALRSYYVNWYQQLPGTAPKLLIYDHSKRPTGVPDRFSGSKSGTSASLAISGLRSEDEADYYCQSYDSSTVVFGGGTKLTVLG
notes: as for B2
MFI [2]: 66.7
EC50 [3]: 0.0509 nM

B4: mutant antibody 5A6 LM4 (antibody, V domains shown)
VH: EVQLLESGGGLVQPGGSLRLSCAASGFTFSNYGVHWVRQAPGKGLEWVSYISYSGGTYYNPSLKSRFTISRDNSKNTLYLQMNSLRAEDTAVYYCARDSDDFGFDYWGQGTLVTVSS
VL: QSVLTQPPSASGTPGQRVTISCQGDSLRSYYVNWYQQLPGTAPKLLIYDHSKRPTGVPDRFSGSKSGTSASLAISGLRSEDEADYYCQSYDASTVVFGGGTKLTVLG
notes: as for B2
MFI [2]: 77.1
EC50 [3]: 0.0823 nM

B5: mutant antibody 5A6 LM3 (antibody, V domains shown)
VH: EVQLLESGGGLVQPGGSLRLSCAASGFTFSNYGVHWVRQAPGKGLEWVSYISYSGGTYYNPSLKSRFTISRDNSKNTLYLQMNSLRAEDTAVYYCARDSDDFGFDYWGQGTLVTVSS
VL: QSVLTQPPSASGTPGQRVTISCQGDSLRSYYVNWYQQLPGTAPKLLIYDHSKRPTGVPDRFSGSKSGTSASLAISGLRSEDEADYYCQSYESSTVVFGGGTKLTVLG
notes: as for B2
MFI [2]: 84.6
EC50 [3]: 0.133 nM

B6: mutant antibody 5A6 LM5 (antibody, V domains shown)
VH: EVQLLESGGGLVQPGGSLRLSCAASGFTFSNYGVHWVRQAPGKGLEWVSYISYSGGTYYNPSLKSRFTISRDNSKNTLYLQMNSLRAEDTAVYYCARDSDDFGFDYWGQGTLVTVSS
VL: QSVLTQPPSASGTPGQRVTISCQGESLRSYYVNWYQQLPGTAPKLLIYDHSKRPTGVPDRFSGSKSGTSASLAISGLRSEDEADYYCQSYESSTVVFGGGTKLTVLG
notes: as for B2
MFI [2]: 81.4
EC50 [3]: 0.103 nM

B7: mutant antibody 5A6 LM8 (antibody, V domains shown)
VH: EVQLLESGGGLVQPGGSLRLSCAASGFTFSNYGVHWVRQAPGKGLEWVSYISYSGGTYYNPSLKSRFTISRDNSKNTLYLQMNSLRAEDTAVYYCARDSDDFGFDYWGQGTLVTVSS
VL: QSVLTQPPSASGTPGQRVTISCQGDALRSYYVNWYQQLPGTAPKLLIYDHSKRPTGVPDRFSGSKSGTSASLAISGLRSEDEADYYCQSYDASTVVFGGGTKLTVLG
notes: as for B2
MFI [2]: 68.6
EC50 [3]: 0.068 nM

B8: mutant antibody 5A6 LM1 (antibody, V domains shown)
VH: EVQLLESGGGLVQPGGSLRLSCAASGFTFSNYGVHWVRQAPGKGLEWVSYISYSGGTYYNPSLKSRFTISRDNSKNTLYLQMNSLRAEDTAVYYCARDSDDFGFDYWGQGTLVTVSS
VL: QSVLTQPPSASGTPGQRVTISCQGESLRSYYVNWYQQLPGTAPKLLIYDHSKRPTGVPDRFSGSKSGTSASLAISGLRSEDEADYYCQSYDSSTVVFGGGTKLTVLG
notes: as for B2
MFI [2]: 83.4
EC50 [3]: 0.0818 nM

B9: mutant antibody 5A6 LM7 (antibody, V domains shown)
VH: EVQLLESGGGLVQPGGSLRLSCAASGFTFSNYGVHWVRQAPGKGLEWVSYISYSGGTYYNPSLKSRFTISRDNSKNTLYLQMNSLRAEDTAVYYCARDSDDFGFDYWGQGTLVTVSS
VL: QSVLTQPPSASGTPGQRVTISCQGDALRSYYVNWYQQLPGTAPKLLIYDHSKRPTGVPDRFSGSKSGTSASLAISGLRSEDEADYYCQSYESSTVVFGGGTKLTVLG
notes: as for B2
MFI [2]: 71.1
EC50 [3]: 0.105 nM

B10: mutant antibody 5D5 LM4 (antibody, V domains shown)
VH: EVQLLESGGGLVQPGGSLRLSCAASGFTFSDYGLSWVRQAPGKGLEWVSLIDSSGSSTFYADSVKGRFTISRDNSKNTLYLQMNSLRAEDTAVYYCAKEHGLFDSWGQGTLVTVSS
VL: EIVLTQSPGTLSLSPGERATLSCKASQDIDDAINWYQQKPGQAPRLLIYDASLRATGIPDRFSGSGSGTDFTLTISRLEPEDFAVYYCQQSLRTPITFGQGTKLEIKR
notes: Light chain CDR mutant of 5D5 (IgG1); heavy chain as 5D5
MFI [2]: 62.3
EC50 [3]: 0.0708 nM
Kd [4]: 14.2 nM
koff [4]: 0.0594 s⁻¹
kon [4]: 4.17e+06 M⁻¹ s⁻¹

B11: mutant antibody 5D5 LM5 (antibody, V domains shown)
VH: EVQLLESGGGLVQPGGSLRLSCAASGFTFSDYGLSWVRQAPGKGLEWVSLIDSSGSSTFYADSVKGRFTISRDNSKNTLYLQMNSLRAEDTAVYYCAKEHGLFDSWGQGTLVTVSS
VL: EIVLTQSPGTLSLSPGERATLSCKASQDIDDEINWYQQKPGQAPRLLIYDASLRATGIPDRFSGSGSGTDFTLTISRLEPEDFAVYYCQQSLRTPITFGQGTKLEIKR
notes: as for B10
MFI [2]: 73.6
EC50 [3]: 0.0763 nM

B12: mutant antibody 5D5 LM1 (antibody, V domains shown)
VH: EVQLLESGGGLVQPGGSLRLSCAASGFTFSDYGLSWVRQAPGKGLEWVSLIDSSGSSTFYADSVKGRFTISRDNSKNTLYLQMNSLRAEDTAVYYCAKEHGLFDSWGQGTLVTVSS
VL: EIVLTQSPGTLSLSPGERATLSCKASQDIDNDINWYQQKPGQAPRLLIYDASLRATGIPDRFSGSGSGTDFTLTISRLEPEDFAVYYCQQSLRTPITFGQGTKLEIKR
notes: as for B10
MFI [2]: 32
EC50 [3]: 0.0939 nM

B13: mutant antibody 5D5 LM2 (antibody, V domains shown)
VH: EVQLLESGGGLVQPGGSLRLSCAASGFTFSDYGLSWVRQAPGKGLEWVSLIDSSGSSTFYADSVKGRFTISRDNSKNTLYLQMNSLRAEDTAVYYCAKEHGLFDSWGQGTLVTVSS
VL: EIVLTQSPGTLSLSPGERATLSCKASQDIDEDINWYQQKPGQAPRLLIYDASLRATGIPDRFSGSGSGTDFTLTISRLEPEDFAVYYCQQSLRTPITFGQGTKLEIKR
notes: as for B10
MFI [2]: 29
EC50 [3]: 0.0858 nM

B14: mutant antibody 5D5 LM3 (antibody, V domains shown)
VH: EVQLLESGGGLVQPGGSLRLSCAASGFTFSDYGLSWVRQAPGKGLEWVSLIDSSGSSTFYADSVKGRFTISRDNSKNTLYLQMNSLRAEDTAVYYCAKEHGLFDSWGQGTLVTVSS
VL: EIVLTQSPGTLSLSPGERATLSCKASQDIDADINWYQQKPGQAPRLLIYDASLRATGIPDRFSGSGSGTDFTLTISRLEPEDFAVYYCQQSLRTPITFGQGTKLEIKR
notes: as for B10
MFI [2]: 31.5
EC50 [3]: 0.0593 nM
